Measured values taken from PMC9166816, “RNF219 regulates CCR4-NOT function in mRNA translation and deadenylation” (Scientific Reports, 2022).

Molecular target: CCR4-NOT complex (human (endogenous in human cell lines), UniProt A5YKK6 1-2376; Q9NZN8 1-540; O75175 1-753; Q9H9A5 1-744; Q9UKZ1 1-510)
Assay: cell-based or functional assay

Row | Binder | Renilla/Firefly luciferase ratio (RL/FL) of the 5BoxB reporter with tethered NHA-RNF219-Id (lambdaN-HA tagged form of the allele) | Renilla/Firefly luciferase ratio (RL/FL) of the 5BoxB reporter with tethered NHA-RNF219
1 | RNF219-Id, CCR4-NOT complex interaction defective RNF219 allele (natural protein) MAQTVQNVTLSLTLPITCHICLGKVRQPVICINNHVFCSICIDLWLKNNSQCPACRVPITPENPCKEIIGGTSESEPMLSHTVRKHLRKTRLELLHKEYEDEIDCLQKEVEELKSKNLSLESQIKTILDPLTLVQGNQNEDKHLVTDNPSKINPETVAEWKKKLRTANEIYEKVKDDVDKLKEANKKLKLENGGLVRENLRLKAEVDNRSPQKFGRFAVAALQSKVEQYERETNRLKKALERSDKYIEELESQVAQLKNSSEEKEAMNSICQTALSADGKGSKGSEEDVVSKNQGDSARKQPGSSTSSSSHLAKPSSSRLCDTSSARQESTSKADLNCSKNKDLYQEQVEVMLDVTDTSMDTYLEREWGNKPSDCVPYKDEELYDLPAPCTPLSLSCLQLSTPENRESSVVQAGGSKKHSNHLRKLVFDDFCDSSNVSNKDSSEDDISRSENEKKSECFSSPKTGFWDCCSTSYAQNLDFESSEGNTIANSVGEISSKLSEKSGLCLSKRLNSIRSFEMNRTRTSSEASMDAAYLDKISVENSKSPCNNGFKSLDLDGLSKSSQGSEFLEEPDKLEEKTELNLSKGSLTNDQLENGSEWKPTSFFLLSPSDQEMNEDFSLHSSSCPVTNEIKPPSCLFQTEFSQGILLSSSHRLFEDQRFGSSLFKMSSEMHSLHNHLQSPWSTSFVPEKRNKNVNQSTKRKIQSSLSSASPSKATKS | 1.5 RL/FL ratio | –
2 | lambdaN-peptide and HA-tagged RNF219 (NHA-RNF219) (natural protein) MAQTVQNVTLSLTLPITCHICLGKVRQPVICINNHVFCSICIDLWLKNNSQCPACRVPITPENPCKEIIGGTSESEPMLSHTVRKHLRKTRLELLHKEYEDEIDCLQKEVEELKSKNLSLESQIKTILDPLTLVQGNQNEDKHLVTDNPSKINPETVAEWKKKLRTANEIYEKVKDDVDKLKEANKKLKLENGGLVRENLRLKAEVDNRSPQKFGRFAVAALQSKVEQYERETNRLKKALERSDKYIEELESQVAQLKNSSEEKEAMNSICQTALSADGKGSKGSEEDVVSKNQGDSARKQPGSSTSSSSHLAKPSSSRLCDTSSARQESTSKADLNCSKNKDLYQEQVEVMLDVTDTSMDTYLEREWGNKPSDCVPYKDEELYDLPAPCTPLSLSCLQLSTPENRESSVVQAGGSKKHSNHLRKLVFDDFCDSSNVSNKDSSEDDISRSENEKKSECFSSPKTGFWDCCSTSYAQNLDFESSEGNTIANSVGEISSKLSEKSGLCLSKRLNSIRSFEMNRTRTSSEASMDAAYLDKISELDSMMSESDNSKSPCNNGFKSLDLDGLSKSSQGSEFLEEPDKLEEKTELNLSKGSLTNDQLENGSEWKPTSFFLLSPSDQEMNEDFSLHSSSCPVTNEIKPPSCLFQTEFSQGILLSSSHRLFEDQRFGSSLFKMSSEMHSLHNHLQSPWSTSFVPEKRNKNVNQSTKRKIQSSLSSASPSKATKS | – | 0.307 RL/FL ratio
